In patent publication US20230134571A1 (INTERNATIONAL AIDS VACCINE INITIATIVE, published 2023):

How the values were obtained:
Experiment in all cases: cell-based or functional assay
[1] = target: HIV Env, isolate AC10.0.29 (HIV)
[2] = target: HIV Env, isolate QH0692.42 (HIV)
[3] = target: HIV Env, isolate SC422661.8 (HIV)
[4] = target: HIV Env, isolate TRJO4551.58 (HIV)
[5] = target: HIV Env, isolate WEAU_d15_410_5017 (HIV)
[6] = target: HIV Env, isolate WITO4160.33 (HIV)
HIV Env, isolate CNE58 = HIV Env, isolate CNE58 (HIV)
HIV Env, isolate 246FC1G = HIV Env, isolate 246FC1G (HIV)
[7] = target: HIV Env, isolate 7030102001E5(Rev-) (HIV)
[8] = target: HIV Env, isolate BF1266.431a (HIV)
[9] = target: HIV Env, isolate Ce2060_G9 (HIV)
[10] = target: HIV Env, isolate HIV-16055-2.3 (HIV)
[11] = target: HIV Env, isolate ZM197M.PB7 (HIV)
HIV Env, isolate T278-50 = HIV Env, isolate T278-50 (HIV)
[12] = target: HIV Env, isolate P0402_C2_11 (HIV)
[13] = target: HIV Env, isolate X2088_C9 (HIV)
[14] = target: HIV Env, isolate 6240_08_TA5_4622 (HIV)

Binder | IC80 (µg/ml) with constrains [1] | IC80 (µg/ml) with constrains [2] | IC80 (µg/ml) with constrains [3] | IC80 (µg/ml) with constrains [4] | IC80 (µg/ml) with constrains [5] | IC80 (µg/ml) with constrains [6] | IC80 (µg/ml) with constrains (HIV Env, isolate CNE58) | IC80 (µg/ml) with constrains (HIV Env, isolate 246FC1G) | IC80 (µg/ml) with constrains [7] | IC80 (µg/ml) with constrains [8] | IC80 (µg/ml) with constrains [9] | IC80 (µg/ml) with constrains [10] | IC80 (µg/ml) with constrains [11] | IC80 (µg/ml) with constrains (HIV Env, isolate T278-50) | IC80 (µg/ml) with constrains [12] | IC80 (µg/ml) with constrains [13] | IC80 (µg/ml) with constrains [14]
ePGDM5 (antibody, V domains shown) VH: QAQLVQSGPEVRKPGTSVKVSCKNPGNTLTTYDLHWVRQVPGQGLQWMGWISHEGDKKVIVERFKAKVTIDWDRSTNTAYLQLSGLTSEDTAVYYCAKGSKHRLRDYALYDEDGALNWAVDVDYLANLEFWGQGTAVTVSS VL: DFVLTQSPLSLSVTPGESASISCKSDHSLQHGDRNNYLAWYVQKPGRSPQLLIDLASERASGVPDRFSGSGSRKDFTLKIDRVEAEDVGTYYCMQGRESPWTFGQGTKVDIK | 1.1 µg/mL | > 100 µg/mL | 5.33 µg/mL | > 100 µg/mL | 0.003 µg/mL | 0.015 µg/mL | 0.015 µg/mL | > 100 µg/mL | > 100 µg/mL | 0.014 µg/mL | 0.044 µg/mL | 0.007 µg/mL | 0.141 µg/mL | 4.23 µg/mL | 0.015 µg/mL | > 100 µg/mL | 8.09 µg/mL
PGDM1400 (antibody, V domains shown) VH: QVHLTQSGPEVRKPGTSVKVSCKAPGNTLKTYDLHWVRSVPGQGLQWMGWISHEGDKKVIVERFKAKVTIDWDRSTNTAYLQLSGLTSGDTAVYYCAKGSKHRLRDYALYDDDGALNWAVDVDYLSNLEFWGQGTAVTVSS VL: DFVLTQSPHSLSVTPGESASISCKSSHSLIHGDRNNYLAWYVQKPGRSPQLLIYLASSRASGVPDRFSGSGSDKDFTLKISRVETEDVGTYYCMQGRESPWTFGQGTKVDIK | 2.19 µg/mL | > 100 µg/mL | 62.8 µg/mL | > 100 µg/mL | 0.3 µg/mL | 0.013 µg/mL | 0.01 µg/mL | > 100 µg/mL | > 100 µg/mL | 0.024 µg/mL | 0.099 µg/mL | 0.013 µg/mL | 0.282 µg/mL | 21.7 µg/mL | 0.027 µg/mL | > 100 µg/mL | > 100 µg/mL
ePGDM13 (antibody, V domains shown) VH: QAQLVQSGPEVRKPGTSVKVSCKNPGNTLTTYDLHWVRQVPGQGLQWMGWISHEGDKKVIVERFKAKVTIDWDRSTNTAYLQLSGLTSEDTAVYYCAKGSKHRLRDYALYDEDGALNWAVDVDYLANLEFWGQGTAVTVSS VL: DIVLTQSPLSLSVTPGESASISCKSSHSLQHGDRNNYLAWYVQKPGRSPQLLLDLASERASGVPDRFSGSGSEKDFTLKISRVETEDVGTYYCMQGRESPWTFGQGTKVDIK | 0.776 µg/mL | > 100 µg/mL | 6.26 µg/mL | > 100 µg/mL | 0.012 µg/mL | 0.013 µg/mL | 0.014 µg/mL | > 100 µg/mL | > 100 µg/mL | 0.016 µg/mL | 0.071 µg/mL | 0.011 µg/mL | 0.24 µg/mL | 6.4 µg/mL | 0.006 µg/mL | > 100 µg/mL | 12.6 µg/mL
